Reference: patent US20250313625A1 (ELPISCIENCE SUZHOU BIOPHARMA, published 2025)
Read-outs that look alike come from different tables or passages of the source. Blank lines part the entries; values can stand above or below the binder they belong to.

Assays:
[1] = target: T1, hFc tagged human LAG3 ECD recombinant protein (human, UniProt P18627 23-450); test: competitive ELISA format II: biotin hFc-LAG3 ECD binding to coated His-FGL1
T1 construct: range 23-450; also called biotin labelled hFc tagged human LAG3 ECD; not shown: human IgG Fc tag
T1 sequence (looked up): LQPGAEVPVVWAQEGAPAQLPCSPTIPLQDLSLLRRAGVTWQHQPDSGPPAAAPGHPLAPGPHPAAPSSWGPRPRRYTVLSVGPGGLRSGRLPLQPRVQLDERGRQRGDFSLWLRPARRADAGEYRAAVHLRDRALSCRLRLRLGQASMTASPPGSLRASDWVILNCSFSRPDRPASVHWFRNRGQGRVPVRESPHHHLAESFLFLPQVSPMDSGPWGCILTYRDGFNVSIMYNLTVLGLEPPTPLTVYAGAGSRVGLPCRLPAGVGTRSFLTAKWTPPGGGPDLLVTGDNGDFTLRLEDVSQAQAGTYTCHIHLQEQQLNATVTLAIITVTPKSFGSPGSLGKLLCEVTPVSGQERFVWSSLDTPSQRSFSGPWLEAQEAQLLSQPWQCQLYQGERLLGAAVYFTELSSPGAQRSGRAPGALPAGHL
Procedure: (§1) After washing, HRP labeled anti-His 2nd antibody (Sigma) was added and incubated at 37° C. for 1 hour. Then, 100 μl/well of TMB solution (Biotechnology) was added. After incubation for 15 minutes at room temperature, the reaction was stopped by the addition of 50 μl of 1N HCl. OD 450 nm was read. […] After washing, HRP labeled anti-SA 2nd antibody (Sigma) was added and incubated at 37° C. for 1 hour. Then, 100 μl/well of TMB solution (Biotechnology) was added. After incubation for 15 minutes at room temperature, the reaction was stopped by the addition of 50 μl of 1N HCl. OD 450 nm was read. […] The competition assay of format III is a competitive FACS assay. […] After washing, dye labeled anti-His 2nd antibody (Sigma) was added and incubated at 37° C. for 1 hour. Fluorescence intensity was detected.

[2] = target: T2, LAG3 D1 domain extra loop peptide (biotin labelled (site not stated)); test: ELISA format I: biotin labelled LAG3 D1 domain extra loop peptide on plate coated antibody; axis printed as Ab Conc. (nM)
T2 peptide: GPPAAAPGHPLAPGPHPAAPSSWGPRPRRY
Procedure: In ELISA binding assay of format I (FIG. 9A), biotin labelled LAG3 D1 domain extra loop peptide was incubated with ELISA microplate coated anti-LAG3 antibodies. After washing, HRP labeled anti-SA 2nd antibody (Sigma) was added and incubated at 37° C. for 1 hour. Then, 100 μl/well of TMB solution (Biotechnology) was added. After incubation for 15 minutes at room temperature, the reaction was stopped by the addition of 50 μl of 1N HCl. OD 450 nm was read. In ELISA binding assay of format II (FIG. 9B), biotin labelled LAG3 D1 domain extra loop peptide and anti-LAG3 antibodies were co-incubated in ELISA microplate coated with SA. After washing, HRP labeled anti-human Fc 2nd antibody (Sigma) was added and incubated at 37° C. for 1 hour. Then, 100 μl/well of TMB solution (Biotechnology) was added. After incubation for 15 minutes at room temperature, the reaction was stopped by the addition of 50 μl of 1N HCl. OD 450 nm was read.

[3] = target: T3, mFc tagged human LAG3 ECD recombinant protein (human, UniProt P18627 23-450); test: competitive ELISA: mFc tagged human LAG3 ECD binding to plate coated LSECtin ECD
T3 construct: extracellular domain; purchased from Biointron; not shown: mouse IgG Fc (mFc) tag
T3 sequence (looked up): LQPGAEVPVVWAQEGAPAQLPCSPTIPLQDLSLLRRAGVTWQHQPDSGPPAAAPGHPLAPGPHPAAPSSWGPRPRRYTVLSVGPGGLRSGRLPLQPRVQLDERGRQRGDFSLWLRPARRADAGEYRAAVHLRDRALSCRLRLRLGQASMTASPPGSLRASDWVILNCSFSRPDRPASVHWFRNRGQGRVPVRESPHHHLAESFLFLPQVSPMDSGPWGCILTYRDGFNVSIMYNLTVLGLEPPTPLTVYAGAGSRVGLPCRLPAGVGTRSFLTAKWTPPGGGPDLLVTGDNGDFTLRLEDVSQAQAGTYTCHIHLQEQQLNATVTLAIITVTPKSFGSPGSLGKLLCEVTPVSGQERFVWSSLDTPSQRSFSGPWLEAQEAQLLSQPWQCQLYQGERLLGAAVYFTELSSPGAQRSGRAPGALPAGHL
Procedure: Activity of the purified chimeric antibodies to block LAG3 and LSECtin interaction was determined by competitive ELISA assay. […] After washing, HRP labeled anti-mouse Fc 2nd antibody (Sigma) was added and incubated at 37° C. for 1 hour. Then, 100 μl/well of TMB solution (Biotechnology) was added. After incubation for 15 minutes at room temperature, the reaction was stopped by the addition of 50 μl of 1N HCl. OD 450 nm was read.

[4] = target: T4, human LAG3, full length, stably expressed on cells (human, UniProt P18627 23-525); test: FACS on 293F cells stably expressing human LAG3
T4 construct: whole, on cells; also called CHOK1-human LAG3
T4 sequence (looked up): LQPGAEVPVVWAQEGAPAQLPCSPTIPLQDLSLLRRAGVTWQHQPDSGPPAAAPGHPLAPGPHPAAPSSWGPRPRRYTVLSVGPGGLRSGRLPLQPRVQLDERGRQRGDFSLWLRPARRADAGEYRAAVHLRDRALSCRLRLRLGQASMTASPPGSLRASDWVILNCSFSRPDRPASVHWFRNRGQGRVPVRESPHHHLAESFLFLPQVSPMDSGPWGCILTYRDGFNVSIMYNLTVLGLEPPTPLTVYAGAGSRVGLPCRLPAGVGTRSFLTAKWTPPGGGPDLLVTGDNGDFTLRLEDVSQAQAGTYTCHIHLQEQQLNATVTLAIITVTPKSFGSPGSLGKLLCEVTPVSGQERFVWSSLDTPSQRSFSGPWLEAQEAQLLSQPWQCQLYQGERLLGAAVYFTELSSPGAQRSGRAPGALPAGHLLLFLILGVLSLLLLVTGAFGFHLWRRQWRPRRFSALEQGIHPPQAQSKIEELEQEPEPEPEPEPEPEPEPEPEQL
Procedure: Briefly the antibodies were incubated with 2×10⁵ target cells at 4° C. for 1 hour. After washing, fluorescence labeled anti-mouse IgG 2nd antibody (Life Technologies) was added and incubated at 4° C. for 1 hour. Geometric median fluorescence intensity (MFI) was detected and EC₅₀ was calculated using GraphPad Prism9.0.
MFI was detected and EC₅₀ was calculated using GraphPad Prism9.0.

[5] = target: T3, mFc tagged human LAG3 ECD recombinant …; test: competitive FACS: mFc-LAG3 ECD binding to Raji cells (MHC II)
Procedure: (§2) Activity of the purified chimeric antibodies to block LAG3 and MHC II interaction was determined by competitive FACS assay. […] After washing, dye labeled anti-mouse Fc 2nd antibody (Sigma) was added and incubated at 37° C. for 1 hour. Fluorescence intensity was detected.

[6] = target: T3, mFc tagged human LAG3 ECD recombinant …; test: competitive FACS: mFc tagged human LAG3 ECD binding to MHC II on Raji cells
Procedure: as §2

[7] = target: T5, human LAG3 ECD recombinant protein (plate coated, tag not stated) (human, UniProt P18627 23-450); test: competitive ELISA format I: His-FGL1 binding to coated LAG3 ECD
T5 construct: extracellular domain
T5 sequence (looked up): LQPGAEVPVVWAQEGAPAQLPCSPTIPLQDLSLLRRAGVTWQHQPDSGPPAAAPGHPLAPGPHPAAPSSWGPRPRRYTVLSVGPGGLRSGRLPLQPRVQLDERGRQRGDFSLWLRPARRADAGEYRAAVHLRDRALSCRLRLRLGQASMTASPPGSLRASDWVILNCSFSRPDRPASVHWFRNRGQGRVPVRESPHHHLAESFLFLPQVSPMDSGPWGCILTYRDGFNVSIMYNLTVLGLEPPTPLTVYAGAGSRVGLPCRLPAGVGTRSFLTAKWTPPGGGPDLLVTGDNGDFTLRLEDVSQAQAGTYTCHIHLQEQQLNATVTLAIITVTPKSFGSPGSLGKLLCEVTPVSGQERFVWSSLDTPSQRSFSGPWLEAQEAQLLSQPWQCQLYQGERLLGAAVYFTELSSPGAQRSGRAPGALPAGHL
Procedure: as §1

[8] = target: T3, mFc tagged human LAG3 ECD recombinant …; test: competitive FACS: mFc tagged human LAG3 ECD binding to MHC II on Raji cells; remark: listed apart in the source
Procedure: as §2

[9] = target: T6, human LAG3 (form used in Octet, Biacore and HDX-MS not given) (human, UniProt P18627 23-450, limits assumed); test: BLI (Octet), 1:1 fit
T6 sequence (looked up): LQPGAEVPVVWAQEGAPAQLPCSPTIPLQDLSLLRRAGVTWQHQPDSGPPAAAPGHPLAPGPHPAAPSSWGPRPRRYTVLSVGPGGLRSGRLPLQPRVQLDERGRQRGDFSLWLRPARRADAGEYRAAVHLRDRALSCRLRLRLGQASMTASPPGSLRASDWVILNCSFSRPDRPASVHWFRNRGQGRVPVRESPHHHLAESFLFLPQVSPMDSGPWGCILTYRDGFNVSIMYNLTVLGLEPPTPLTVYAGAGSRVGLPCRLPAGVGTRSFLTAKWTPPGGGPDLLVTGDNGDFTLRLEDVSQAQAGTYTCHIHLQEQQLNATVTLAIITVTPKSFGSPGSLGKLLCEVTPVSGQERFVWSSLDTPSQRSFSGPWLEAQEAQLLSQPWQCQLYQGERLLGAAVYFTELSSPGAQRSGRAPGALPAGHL
Procedure: The purified chimeric antibodies were characterized for binding affinity against human LAG3 using Bio-Layer Interferometry technology (Octet system). The association and dissociation curves were fit with 1:1 binding model, and the Ka/Kd/KD values for each antibody were calculated.

[10] = target: T6, human LAG3 (form used in Octet, Biacore …); test: BLI (Octet), 1:1 fit; remark: listed apart in the source
Procedure: (§3) The association and dissociation curves were fit with 1:1 binding model, and the Ka/Kd/KD values for each antibody were calculated.
as §3

IC50 [1]: 2 nM
TOP blocking (%) [1]: 84.5%
binding result [2]: no binding (tested: about 300 nM)
%Blocking at 4 nM [3]: 61.6%
%Blocking at 20 nM [3]: 92.7%
%Blocking at 100 nM [3]: 97%
EC50 [4]: 1.6 nM
TOP MFI [4]: 416
IC50 [5]: 4.2 nM
TOP blocking (%) [5]: 96.4%
%Blocking at 4 nM [6]: 21.5%
%Blocking at 8 nM [6]: 96.7%
Blocking ratio at 66.7 nM (%) [7]: 62.6%
%Blocking at 2 nM [8]: 9.7%
%Blocking at 4 nM [8]: 24.1%
%Blocking at 8 nM [8]: 84.3%
Kd [9]: 3.58 nM
koff [9]: 0.00139 s⁻¹
kon [9]: 389000 M⁻¹ s⁻¹
Kd [10]: 7.7 nM
koff [10]: 0.0268 s⁻¹
kon [10]: 3.48e+06 M⁻¹ s⁻¹
B1: 029c (antibody, human IgG4, V domains shown)
VH: DVKLVESGEDLVKPGGSLKLSCAASGFTFSSYAMSWVRQTPEKRLEWVAYVTSGGDYIYYADTVKGRFTISRDDVRNTLYLQMSSLKSEDTAMYYCTRVAYDYEWYFDVWGTGAPVTVSS
VL: DIVMTQSHKFMSTSVGDRVSITCKASQDVTTAVAWYQQKPGQSPKLLIYSASYRYTGVSDRFTGSGSGTDFTFTISSVQAEDLALYYCQQHDSSPWTFGGGTKLEIK
notes: human IgG4 S228P / kappa chimeric antibody; also called chimeric antibody 029; not shown: human kappa light chain constant region (pcDNA3.4-hIgGk vector)

binding result [2]: no binding (tested: about 300 nM)
EC50 [4]: 1.7 nM
TOP MFI [4]: 267
Blocking ratio at 66.7 nM (%) [7]: 39.3%
B2: BAP-050 (antibody, V domains shown)
VH: QIQLVQSGPELKKPGETVKISCKASGFTLTNYGMNWVRQTPGKGLKWMGWINTDTGEPTYADDFKGRFAFSLETSASTASLQINNLKNADTATYFCARNPPYYYGTNNAEAMDYWGQGTAVTVSS
VL: DIQMTQTTSSLSASLGDRVTISCSSSQDISNYLNWYQQKPDGTVKVLIYYTSTLHLGVPSRFSGSGSGTDYSLTISNLELEDIATYYCQQYYNLPWTFGGGTKLEIK
notes: also called BAP-50
